Reference: US20110300138A1 (published 2011)
Values belong to the molecule of their own block, whether it stands above or below them.

Tests used:
[1] = target: thyroid stimulating hormone receptor (TSHR), full length human TSHR (human) (UniProt P16473); assay: TSH-biotin competition ELISA, TSHR coated wells; negative control, 10 µg/mL in HBD serum
[2] = target: TSH receptor (full length human TSHR) (human) (UniProt P16473); assay: competition ELISA: inhibition of M22 Fab-peroxidase (competitor) binding to TSHR coated wells; negative control at 1 µg/mL diluted in assay buffer
[3] = target: TSHR (thyroid stimulating hormone receptor), full length human (human) (UniProt P16473); assay: negative control; competitor ^125I-K1-70 IgG, TSHR coated tubes; 1 µg/mL in HBD
[4] = target: TSH receptor (full length human TSHR) (human) (UniProt P16473); assay: competition ELISA: inhibition of M22 Fab-peroxidase (competitor) binding to TSHR coated wells; negative control at 0.1 µg/mL diluted in HBD serum pool
[5] = target: TSHR (full length) coated on tubes (human) (UniProt P16473); assay: inhibition of 125I-K1-18 Fab (competitor) binding to TSHR coated tubes; negative control 0.1 µg/mL in assay buffer
[6] = target: TSH receptor (TSHR) coated on tubes (human) (UniProt P16473); assay: inhibition of 125I-K1-70 IgG binding to TSHR coated tubes; negative control 100 µg/mL in HBD serum pool; duplicate determination
[7] = target: human TSH receptor (full length) coated on ELISA plate wells (human) (UniProt P16473); assay: TSH-biotin binding inhibition ELISA, TSHR coated wells; 0.1 µg/mL in HBD serum pool; negative control MAb
[8] = target: TSH receptor (TSHR), full length human, coated on tubes (human) (UniProt P16473); assay: inhibition of 125I-K1-18 IgG binding to TSHR coated tubes; competitor 125I-K1-18 IgG; negative control sample at 0.1 µg/mL in assay buffer
[9] = target: TSHR (full length) coated on tubes (human) (UniProt P16473); assay: inhibition of 125I-K1-18 Fab (competitor) binding to TSHR coated tubes; negative control 10 µg/mL in HBD serum
[10] = target: TSHR (thyroid stimulating hormone receptor), full length human (human) (UniProt P16473); assay: negative control; competitor ^125I-K1-70 IgG, TSHR coated tubes; 100 µg/mL in assay buffer
[11] = target: TSH receptor (TSHR) coated on tubes (human) (UniProt P16473); assay: inhibition of 125I-K1-70 IgG binding to TSHR coated tubes; negative control 100 µg/mL in assay buffer
[12] = target: TSH receptor (TSHR), full length human, coated on tubes (human) (UniProt P16473); assay: inhibition of 125I-TSH binding to TSHR coated tubes; 100 µg/mL, diluted in HBD serum pool
[13] = target: TSH receptor (TSHR), full length human, coated on tubes (human) (UniProt P16473); assay: inhibition of 125I-K1-18 IgG binding to TSHR coated tubes; competitor 125I-K1-18 IgG; negative control sample at 1 µg/mL in HBD serum
[14] = target: TSH receptor (full length human TSHR) (human) (UniProt P16473); assay: competition ELISA: inhibition of M22 Fab-peroxidase (competitor) binding to TSHR coated wells; test sample at 0.1 µg/mL diluted in assay buffer
[15] = target: TSH receptor (TSHR), full length human, coated on tubes (human) (UniProt P16473); assay: inhibition of 125I-K1-18 IgG binding to TSHR coated tubes; competitor 125I-K1-18 IgG; sample at 10 µg/mL in HBD serum
[16] = target: TSH receptor (TSHR), full length human, coated on tubes (human) (UniProt P16473); assay: inhibition of 125I-K1-18 IgG binding to TSHR coated tubes; competitor 125I-K1-18 IgG; sample at 100 µg/mL in assay buffer
[17] = target: TSHR with Phe134 mutated to Ala, expressed in CHO cells (human) (UniProt P16473); assay: cell-based or functional assay
[18] = target: wild type TSHR expressed in CHO cells (human) (UniProt P16473); assay: cell-based or functional assay
[19] = target: human thyroid stimulating hormone receptor (TSHR), full length (human) (UniProt P16473); assay: 125I-K1-18 Fab competition, TSHR coated tubes; 100 µg/mL in assay buffer
[20] = target: TSH receptor (TSHR), full length human, coated on tubes (human) (UniProt P16473); assay: inhibition of 125I-TSH binding to TSHR coated tubes; 100 µg/mL, diluted in HBD serum pool; remark: listed apart in the source
[21] = target: human thyroid stimulating hormone receptor (TSHR), full length (human) (UniProt P16473); assay: 125I-K1-18 Fab competition, TSHR coated tubes; 10 µg/mL in assay buffer
[22] = target: thyroid stimulating hormone receptor (full length human TSHR) (human) (UniProt P16473); assay: ELISA, inhibition of TSH-biotin binding to TSHR coated wells; 1 µg/mL, diluted in assay buffer
[23] = target: TSH receptor (TSHR) coated on tubes (human) (UniProt P16473); assay: inhibition of 125I-K1-70 IgG binding to TSHR coated tubes; sample 10 µg/mL in HBD serum pool
[24] = target: human TSH receptor (full length) coated on ELISA plate wells (human) (UniProt P16473); assay: TSH-biotin binding inhibition ELISA, TSHR coated wells; 0.1 µg/mL in assay buffer + 100 µg/mL 5B3 IgG
[25] = target: TSH receptor (TSHR), full length human, coated on tubes (human) (UniProt P16473); assay: inhibition of 125I-TSH binding to TSHR coated tubes; 0.001 µg/mL, diluted in HBD serum pool

Molecule: 9D33 IgG (antibody)
Inhibition of binding (%) [14]: 35.1% | Inhibition of binding (%) [15]: 68.1% | Inhibition of binding (%) [16]: 72.5%

B1: 5C9 IgG (antibody, from another filing, V domains shown)
VH: EVQLVESGGGLIQPGGSLRLSCAASGFTVSSNYMSWVRQAPGKGLEWVSVTYSGGSTSYADSVKGRFTISRDNSKNTLYLQMNSLRAEDTAVYYCARGGRYCSSISCYARSGCDYWGQGTLVTVSS
VL: AIQMTQSPSSLSASVGDRVTITCRASQSISNYLNWYQQKPGKAPKLLIYAASSLQSGVPSRFSGSGSGTDFTLTISSLQPEDFATYYCQQSYSSPSTTFGQGTKLEIK
Inhibition of binding (%) [19]: 85.2% | Inhibition of binding (%) [20]: 59.2% | Inhibition of binding (%) [21]: 63.8% | Inhibition of binding (%) [22]: 31.4% | Inhibition of binding (%) [23]: 22.7% | % inhibition of TSH-biotin binding [24]: 36.3% | Inhibition of binding (%) [25]: -8%

Other lines, results leading:

Inhibition of binding (%) [1]: -1.6% | Inhibition of binding (%) [2]: 3.4% | Inhibition of binding (%) [3]: -1.5% | Inhibition of binding (%) [4]: 3% | Inhibition of binding (%) [5]: -3.6% | Inhibition of binding (%) [6]: 1.1% | % inhibition of TSH-biotin binding [7]: 8.6% | Inhibition of binding (%) [8]: -4.8% | Inhibition of binding (%) [9]: -0.1% | Inhibition of binding (%) [10]: 1.3% | Inhibition of binding (%) [11]: 15.2% | Inhibition of binding (%) [12]: -3.9% | Inhibition of binding (%) [13]: -6.2%
Molecule: 5B3 IgG (antibody)

Cyclic AMP produced, TSH 0.01 ng/mL, mutated TSHR [17]: 4.73 pmol/mL | Cyclic AMP produced, TSH 0.03 ng/mL, mutated TSHR [17]: 6.05 pmol/mL | Cyclic AMP produced, TSH 0.1 ng/mL, mutated TSHR [17]: 12.7 pmol/mL | Cyclic AMP produced, TSH 0.3 ng/mL, mutated TSHR [17]: 27.3 pmol/mL | Cyclic AMP produced, TSH 1 ng/mL, mutated TSHR [17]: 53.7 pmol/mL | Cyclic AMP produced, TSH 3 ng/mL, mutated TSHR [17]: 61.5 pmol/mL | Mutated/Wild type (%), TSH 0.01 ng/mL [17]: 189% | Mutated/Wild type (%), TSH 0.03 ng/mL [17]: 141% | Mutated/Wild type (%), TSH 0.1 ng/mL [17]: 120% | Mutated/Wild type (%), TSH 0.3 ng/mL [17]: 94% | Mutated/Wild type (%), TSH 1 ng/mL [17]: 102% | Mutated/Wild type (%), TSH 3 ng/mL [17]: 101% | Cyclic AMP produced, TSH 0.01 ng/mL, wild type TSHR [18]: 2.5 pmol/mL | Cyclic AMP produced, TSH 0.03 ng/mL, wild type TSHR [18]: 4.29 pmol/mL | Cyclic AMP produced, TSH 0.1 ng/mL, wild type TSHR [18]: 10.6 pmol/mL | Cyclic AMP produced, TSH 0.3 ng/mL, wild type TSHR [18]: 28.9 pmol/mL | Cyclic AMP produced, TSH 1 ng/mL, wild type TSHR [18]: 52.5 pmol/mL | Cyclic AMP produced, TSH 3 ng/mL, wild type TSHR [18]: 61.1 pmol/mL
Molecule: TSH (ligand)
